# According to patent US20230414703A1 (published 2023):
# B1: peptide QP20 (peptide)
# peptide: QTRTVPMPKIHHPPWQNVVP
# notes: Found by phage display
# B2: peptide HD20 (peptide)
# peptide: HHHQVYQVRSHWTGMHSGHD
# notes: Found by phage display
# B3: peptide SQ20 (peptide)
# peptide: SSYHHFKMPELHFGKNTFHQ
# notes: Found by phage display
# B4: peptide WQ20 (peptide)
# peptide: WNLPASFHNHHIRPHEHEWIQ
# notes: also called WQ-21
# B5: mouse PD-1 receptor (receptor, UniProt Q02242 25-167, looked up)
# chain: LEVPNGPWRSLTFYPAWLTVSEGANATFTCSLSNWSEDLMLNWNRLSPSNQTEKQAAFCNGLSQPVQDARFQIIQLPNRHDFHMNILDTRRNDSGIYLCGAISLHPKAKIEESPGAELVVTERILETSTRYPSPSPKPEGRFQ
# Target: human PD-1 on Jurkat cells (human, UniProt Q15116 25-288)
# Sequence (Q15116 25-288): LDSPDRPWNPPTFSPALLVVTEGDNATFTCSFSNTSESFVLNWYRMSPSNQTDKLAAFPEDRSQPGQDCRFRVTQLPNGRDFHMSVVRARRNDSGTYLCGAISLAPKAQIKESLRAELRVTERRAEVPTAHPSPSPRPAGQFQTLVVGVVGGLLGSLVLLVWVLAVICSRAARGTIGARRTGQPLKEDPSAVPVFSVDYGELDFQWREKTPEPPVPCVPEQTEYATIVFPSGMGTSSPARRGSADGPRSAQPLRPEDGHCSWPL
# Test: cell-based or functional assay
row,Binder,peak-fold inhibition (luciferase reporter expression) [fold]
1,B1,~1.5
2,B2,~1.5
3,B3,~1.5
4,B4,~1.5

# Target: T1, soluble recombinant human PD-1 receptor (human, UniProt Q15116 25-167, limits assumed)
# T1 construct: also called human PD-1 receptors
# T1 sequence (Q15116 25-167 limits assumed): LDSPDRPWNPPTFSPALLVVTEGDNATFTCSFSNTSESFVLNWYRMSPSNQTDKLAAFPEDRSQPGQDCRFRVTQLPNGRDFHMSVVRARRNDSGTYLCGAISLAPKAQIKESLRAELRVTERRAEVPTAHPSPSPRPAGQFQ
# Test: BIACORE T-200 SPR, PD-1 immobilised on CM5, steady state
# Protocol: (§1) 12,000 response units (RU) of human and 6000 RU of mouse PD-1 receptors were directly immobilized on flow cell 2 and flow cell 4 of the CM5 chip by amine coupling method (EDC/NHS). The un-occupied sites were blocked with 1 M ethanol amine. […] Flow cell 1 was kept blank and used for reference subtraction. Binding of analyte to the ligand was monitored in real time.
# (§2) Due to fast on rate and off rate, KD was determined by steady state equilibrium kinetics.
# (§3) Chi square (χ2) analysis was carried out between the actual sensorgram and a sensorgram generated from the BIANALYSIS® software (black line) to determine the accuracy of the analysis. A χ2 value within 1-2 is considered significant (accurate) and below 1 is highly significant (highly accurate).
Binder,Ka [M⁻¹],Kd [µM]
B1,93600,10.7
B2,318000,3.41
B3,194000,5.16
B4,3280,305

# Target: B5
# Test: as above
# Protocol: as §1, §2, §3
Binder,Ka [M⁻¹],Kd [µM]
B1,18000,55.4
B2,4250,235
B3,21400,46.8
B4,1310,761

# Target: T1, soluble recombinant human PD-1 receptor
# Test: clonal phage ELISA, peptide on phage, PD-1 coated well
# From the text: The TriCo-20™ (TRICO-20™) and TriCo-16™ (TRICO-16™) Phage Display Peptide Libraries (Creative Biolabs, 45-1 Ramsey Road, Shirley, NY 11967) were screened to identify binders of soluble recombinant human PD-1 receptor.
row,Binder,Clonal Phase ELISA coated signal
1,B1,0.851
2,B2,0.281
3,B3,0.284
4,B4,0.275

# Target: Mouse PD-L1 (mouse, UniProt Q9EP73 19-239, limits assumed)
# Sequence (Q9EP73 19-239 limits assumed): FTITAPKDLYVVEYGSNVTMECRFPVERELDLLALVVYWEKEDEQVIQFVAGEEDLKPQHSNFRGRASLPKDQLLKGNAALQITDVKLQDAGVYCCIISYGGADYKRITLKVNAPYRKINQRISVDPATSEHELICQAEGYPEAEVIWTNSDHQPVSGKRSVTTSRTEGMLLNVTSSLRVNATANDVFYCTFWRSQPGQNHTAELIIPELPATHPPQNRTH
# Test: BIACORE T-200 SPR, PD-1 immobilised on CM5, steady state
Binder,Ka [M⁻¹],Kd [µM]
B5,2.75e+06,0.364
